Data set [1] deals with HeLa Kyoto. Description: solubility change mitosis vs G1/S (difference of NP-40 vs SDS log2 ratios) (log2 ratio difference); higher = more soluble in mitosis.
The subject of data set [2] is HeLa Kyoto. The data set is described as follows: solubility in G1/S (NP-40 vs SDS abundance) (log2 ratio); higher = more soluble. The settings on record: cell cycle stage: G1/S.
Data set [3] deals with HeLa Kyoto. Description: thermal stability score vs G1/S (z-score of summed log2 fold changes over temperatures); higher = more thermally stable than in G1/S.
For data set [4], the system named is HeLa Kyoto. Description: melting temperature (median over replicates), in situ; higher = more thermally stable.
Setting [5] is: cell cycle stage: early G1 (4.5 h after nocodazole release).
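Throughout, for melting temperature (median over replicates), in situ: HeLa Kyoto cells synchronized by double thymidine or nocodazole block, proteins quantified by TMT10plex mass spectrometry, three independent biological replicates.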
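Throughout, for solubility change mitosis vs G1/S (difference of NP-40 vs SDS log2 ratios): synchronized HeLa Kyoto cells (double thymidine block for G1/S, nocodazole release for mitosis), protein amounts in NP-40 versus SDS lysates quantified by mass spectrometry, three biological replicates.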
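Throughout, for solubility in G1/S (NP-40 vs SDS abundance): HeLa Kyoto cells arrested at G1/S by double thymidine block, proteins quantified by TMT10plex mass spectrometry in mild NP-40 versus SDS extracts, three biological replicates.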
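Throughout, for thermal stability score vs G1/S (z-score of summed log2 fold changes over temperatures): synchronized HeLa Kyoto cells, proteins quantified by TMT10plex mass spectrometry, three biological replicates, mitosis taken 0.5 h after nocodazole release, G1/S directly after double thymidine block.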

Turning to “MSFVAGVIRRLDETVVNRIAAGEVIQRPANAIKEMIENCLDAKSTSIQVIVKEGGLKLIQIQDNGTGIRKEDLDIVCERFTTSKLQSFEDLASISTYGFRGEALASISHVAHVTITTKTADGKCAYRASYSDGKLKAPPKPCAGNQGTQITVEDLFYNIATRRKALKNPSEEYGKILEVVGRYSVHNAGISFSVKKQGETVADVRTLPNASTVDNIRSIFGNAVSRELIEIGCEDKTLAFKMNGYISNANYSVKKCIFLLFINHRLVESTSLRKAIETVYAAYLPKNTHPFLYLSLEISPQNVDVNVHPTKHEVHFLHEESILERVQQHIESKLLGSNSSRMYFTQTLLPGLAGPSGEMVKSTTSLTSSSTSGSSDKVYAHQMVRTDSREQKLDAFLQPLSKPLSSQPQAIVTEDKTDISSGRARQQDEEMLELPAPAEVAAKNQSLEGDTTKGTSEMSEKRGPTSSNPRKRHREDSDVEMVEDDSRKEMTAACTPRRRIINLTSVLSLQEEINEQGHEVLREMLHNHSFVGCVNPQWALAQHQTKLYLLNTTKLSEELFYQILIYDFANFGVLRLSEPAPLFDLAMLALDSPESGWTEEDGPKEGLAEYIVEFLKKKAEMLADYFSLEIDEEGNLIGLPLLIDNYVPPLEGLPIFILRLATEVNWDEEKECFESLSKECAMFYSIRKQYISEESTLSGQQSEVPGSIPNSWKWTVEHIVYKALRSHILPPKHFTEDGNILQLANLPDLYKVFERC [MLH1]”, the “solubility change mitosis (log2)” value in data set [1] is -0.21. Also, the “solubility in G1/S (log2)” value in data set [2] is -0.0862. Besides, the thermal stability score is 3.37 in data set [3] (setting [5]) and 5.51 in data set [3] (cell cycle stage: mitosis). Also, the values for the melting temperature in data set [4] (cell cycle stage: G1/S) and in data set [4] (cell cycle stage: mitosis) were 46.3 °C and 48.8 °C, respectively.
Regarding “MSGCGLFLRTTAAARACRGLVVSTANRRLLRTSPPVRAFAKELFLGKIKKKEVFPFPEVSQDELNEINQFLGPVEKFFTEEVDSRKIDQEGKIPDETLEKLKSLGLFGLQVPEEYGGLGFSNTMYSRLGEIISMDGSITVTLAAHQAIGLKGIILAGTEEQKAKYLPKLASGEHIAAFCLTEPASGSDAASIRSRATLSEDKKHYILNGSKVWITNGGLANIFTVFAKTEVVDSDGSVKDKITAFIVERDFGGVTNGKPEDKLGIRGSNTCEVHFENTKIPVENILGEVGDGFKVAMNILNSGRFSMGSVVAGLLKRLIEMTAEYACTRKQFNKRLSEFGLIQEKFALMAQKAYVMESMTYLTAGMLDQPGFPDCSIEAAMVKVFSSEAAWQCVSEALQILGGLGYTRDYPYERILRDTRILLIFEGTNEILRMYIALTGLQHAGRILTTRIHELKQAKVSTVMDTVGRRLRDSLGRTVDLGLTGNHGVVHPSLADSANKFEENTYCFGRTVETLLLRFGKTIMEEQLVLKRVANILINLYGMTAVLSRASRSIRIGLRNHDHEVLLANTFCVEAYLQNLFSLSQLDKYAPENLDEQIKKVSQQILEKRAYICAHPLDRTC [ACAD9]”, the “solubility change mitosis (log2)” value in data set [1] is -0.164. Besides, the “solubility in G1/S (log2)” value in data set [2] is -0.06. Moreover, the figures for the thermal stability score in data set [3] (setting [5]) and in data set [3] (cell cycle stage: mitosis) were 4.01 and 3.04, respectively. In addition, the melting temperature was 54.6 °C in data set [4] (cell cycle stage: G1/S) and 54.7 °C in data set [4] (cell cycle stage: mitosis).
In the case of “MSGDHLHNDSQIEADFRLNDSHKHKDKHKDREHRHKEHKKEKDREKSKHSNSEHKDSEKKHKEKEKTKHKDGSSEKHKDKHKDRDKEKRKEEKVRASGDAKIKKEKENGFSSPPQIKDEPEDDGYFVPPKEDIKPLKRPRDEDDADYKPKKIKTEDTKKEKKRKLEEEEDGKLKKPKNKDKDKKVPEPDNKKKKPKKEEEQKWKWWEEERYPEGIKWKFLEHKGPVFAPPYEPLPENVKFYYDGKVMKLSPKAEEVATFFAKMLDHEYTTKEIFRKNFFKDWRKEMTNEEKNIITNLSKCDFTQMSQYFKAQTEARKQMSKEEKLKIKEENEKLLKEYGFCIMDNHKERIANFKIEPPGLFRGRGNHPKMGMLKRRIMPEDIIINCSKDAKVPSPPPGHKWKEVRHDNKVTWLVSWTENIQGSIKYIMLNPSSRIKGEKDWQKYETARRLKKCVDKIRNQYREDWKSKEMKVRQRAVALYFIDKLALRAGNEKEEGETADTVGCCSLRVEHINLHPELDGQEYVVEFDFLGKDSIRYYNKVPVEKRVFKNLQLFMENKQPEDDLFDRLNTGILNKHLQDLMEGLTAKVFRTYNASITLQQQLKELTAPDENIPAKILSYNRANRAVAILCNHQRAPPKTFEKSMMNLQTKIDAKKEQLADARRDLKSAKADAKVMKDAKTKKVVESKKKAVQRLEEQLMKLEVQATDREENKQIALGTSKLNYLDPRITVAWCKKWGVPIEKIYNKTQREKFAWAIDMADEDYEF [TOP1]”, the “solubility change mitosis (log2)” value in data set [1] was determined as 0.531. Further, the “solubility in G1/S (log2)” value in data set [2] was -1.22. In addition, the thermal stability score in data set [3] (setting [5]) was found to be 7.82; in data set [3] (cell cycle stage: mitosis), 12. Besides, the melting temperature amounted to 46.9 °C in data set [4] (cell cycle stage: G1/S) and 49.1 °C in data set [4] (cell cycle stage: mitosis).
In the case of “MSGFLEELLGEKLVTGGGEEVDVHSLGARGISLLGLYFGCSLSAPCAQLSASLAAFYGRLRGDAAAGPGPGAGAGAAAEPEPRRRLEIVFVSSDQDQRQWQDFVRDMPWLALPYKEKHRKLKLWNKYRISNIPSLIFLDATTGKVVCRNGLLVIRDDPEGLEFPWGPKPFREVIAGPLLRNNGQSLESSSLEGSHVGVYFSAHWCPPCRSLTRVLVESYRKIKEAGQNFEIIFVSADRSEESFKQYFSEMPWLAVPYTDEARRSRLNRLYGIQGIPTLIMLDPQGEVITRQGRVEVLNDEDCREFPWHPKPVLELSDSNAAQLNEGPCLVLFVDSEDDGESEAAKQLIQPIAEKIIAKYKAKEEEAPLLFFVAGEDDMTDSLRDYTNLPEAAPLLTILDMSARAKYVMDVEEITPAIVEAFVNDFLAEKLKPEPI [NXN]”, the “solubility change mitosis (log2)” value in data set [1] was -0.204. Also, in data set [2], the “solubility in G1/S (log2)” value is 0.175. The figures for the thermal stability score in data set [3] (setting [5]) and in data set [3] (cell cycle stage: mitosis) were 1.06 and 1.73, respectively. Besides, the melting temperature in data set [4] (cell cycle stage: G1/S) and in data set [4] (cell cycle stage: mitosis) was 51 °C throughout.
Take “MSGGGPSGGGPGGSGRARTSSFAEPGGGGGGGGGGPGGSASGPGGTGGGKASVGAMGGGVGASSSGGGPGGSGGGGSGGPGAGTSFPPPGVKLGRDSGKVTTVVATLGQGPERSQEVAYTDIKVIGNGSFGVVYQARLAETRELVAIKKVLQDKRFKNRELQIMRKLDHCNIVRLRYFFYSSGEKKDELYLNLVLEYVPETVYRVARHFTKAKLTIPILYVKVYMYQLFRSLAYIHSQGVCHRDIKPQNLLVDPDTAVLKLCDFGSAKQLVRGEPNVSYICSRYYRAPELIFGATDYTSSIDVWSAGCVLAELLLGQPIFPGDSGVDQLVEIIKVLGTPTREQIREMNPNYTEFKFPQIKAHPWTKVFKSRTPPEAIALCSSLLEYTPSSRLSPLEACAHSFFDELRCLGTQLPNNRPLPPLFNFSAGELSIQPSLNAILIPPHLRSPAGTTTLTPSSQALTETPTSSDWQSTDATPTLTNSS [GSK3A]”: the “solubility change mitosis (log2)” value in data set [1] was -0.0272. In addition, the “solubility in G1/S (log2)” value in data set [2] is 0.181. Also, the thermal stability score is -1 in data set [3] (setting [5]) and -0.972 in data set [3] (cell cycle stage: mitosis). Besides, the melting temperature in data set [4] (cell cycle stage: G1/S) was determined as 52.3 °C; in data set [4] (cell cycle stage: mitosis) it was 52.7 °C.
